The results in this text go back to patent US20100169988A1, “MEANS AND METHODS FOR ISOLATING AND DETERMINING NOVEL TARGETS FOR THE TREATMENT OF NEURODEGENERATIVE, NEUROLOGICAL OR NEUROPSYCHIATRIC DISORDERS AND COMPOSITIONS COMPRISING THE SAME” (priority 2006, published 2010).

Assay [1] concerns the target APP-TAP-AICD (human) (UniProt P05067). Nature of the assay: streptavidin purification of APP-TAP-AICD from brain homogenate; iTRAQ 116/114, transgenic mouse 75 vs control mouse 72; MALDI-TOF/TOF.
Assay [2] shares this target. Kind of assay: streptavidin purification of APP-TAP-AICD from brain homogenate; LTQ-FT semiquantitative method, transgenic mouse 75 vs control mouse 72.

Regarding “Heat shock protein HSP 90-alpha (HSP 86) (Tumor specific transplantation 86 kDa antigen) (from UniProt P07901 2-733)”, the iTRAQ ratio in assay [1] is 4.22.
Take Lrrk1 protein (Fragment), Q3UHC2 1-2014: in assay [2], the probability that this protein is enriched worked out at 0.88.
In the case of “Syntaxin-1B2 (from UniProt P61264 1-288)”, the iTRAQ ratio in assay [1] is 4.57.
As for “fructose-bisphosphate aldolase A homolog (Adult male testis cDNA, RIKEN clone 4933425L11 product) (enzyme)”, the probability that this protein is enriched in assay [2] stood at 0.87.
Take “similar to heat shock protein 1, alpha isoform 1”: the probability that this protein is enriched in assay [2] turned out to be 1.
